Data from article PMC4729957, “The Atg1–kinase complex tethers Atg9-vesicles to initiate autophagy” (Nature Communications, 2016).
Values belong to the molecule of their own block, whether it stands above or below them.

T1: Atg9^core (Atg9^281–779), reconstituted in proteoliposomes (S. cerevisiae) (UniProt Q12142)
T1 sequence: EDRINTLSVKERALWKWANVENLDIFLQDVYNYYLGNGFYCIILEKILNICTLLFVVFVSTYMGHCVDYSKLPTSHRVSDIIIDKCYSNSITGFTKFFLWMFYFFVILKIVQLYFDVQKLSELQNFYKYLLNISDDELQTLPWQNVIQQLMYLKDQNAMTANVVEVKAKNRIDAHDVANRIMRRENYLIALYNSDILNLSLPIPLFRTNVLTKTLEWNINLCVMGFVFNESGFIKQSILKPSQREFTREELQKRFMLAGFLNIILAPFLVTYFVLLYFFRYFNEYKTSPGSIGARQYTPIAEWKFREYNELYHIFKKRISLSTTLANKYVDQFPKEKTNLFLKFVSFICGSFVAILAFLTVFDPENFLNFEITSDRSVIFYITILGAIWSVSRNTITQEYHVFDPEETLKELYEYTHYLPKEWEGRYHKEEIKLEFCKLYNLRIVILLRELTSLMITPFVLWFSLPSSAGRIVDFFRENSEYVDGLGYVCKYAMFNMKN

B1: Atg17–Atg31–Atg29 trimeric complex (Atg17^TC) (complex, S. cerevisiae)
chain 1: MNEADVTKFVNNARKTLTDAQLLCSSANLRIVDIKKKLSSWQLSISKLNFLIVGLRQQGKFLYTILKEGIGTKLIQKQWNQAVLVVLVDEMKYWQYEITSKVQRLDGIVNELSISEKDDTDPSKLGDYISRDNVNLLNDKLKEVPVIERQIENIKLQYENMVRKVNKELIDTKLTDVTQKFQSKFGIDNLMETNVAEQFSRELTDLEKDLAEIMNSLTQHFDKTLLLQDKKIDNDEREELFKVVQGDDKELYNIFKTLHEVIDDVDKTILNLGQFLQAKIKEKTELHSEVSEIINDFNRNLEYLLIFKDISNLIDSFKNSCTQDIQTTKELCEFYDNFEESYGNLVLEAKRRKDVANRMKTILKDCEKQLQNLDAQDQEERQNFIAENGTYLPETIWPGKIDDFSSLYTLNYNVKNP
chain 2: MNVTVTVYDKNVKYRLEENIKNNKGPSNDDQPAYNNESKSTDGSDYAMFPTNIKYIFEDNNDELVDSSDAALTAGIDKVGDELENVIIVQLDESGSLEDITLISDQYELLSHRTNSLSLEENQMRTLSSHGDDKSNDEEEELSVDSDRFRVDSDIELDVISQFCDLSPFLRDLSLNDLIKLYVTQNEQLQMLSNSV
chain 3: MIMNSTNTVVYIKVKGRRPQGFLDPPKFEWNGTKERQLWTMVSNLNYSQDQIDWQNLSKIFETPEFFLKKRTYKLFAEHLELLQLQLEKKRDLEKYSNDQVNEGMSDLIHKYTPTLQNDNLLNVSASPLTTERQDSEEVETEVTNEALQHLQTSKILNIHKKTSDSENKPNDKLDKDGINKEMECGSSDDDLSSSLSVSKSALEEALMDRLQF
notes: Atg17, S. cerevisiae BY4741; Atg31, S. cerevisiae BY4741; Atg29, S. cerevisiae BY4741; dimer of trimers through Atg17; also produced by combining Atg17 with co-expressed Atg31–Atg29; also called Atg17-Atg31–Atg29 complex; source: E. coli Rosetta, co-expressed from pST39, purified (Ni-NTA, SEC); not shown: His6, N-terminal, cleaved; copies: 2 + 2 + 2
B2: myc-tagged Atg17 (Atg17^myc), recombinant (natural protein, S. cerevisiae, UniProt Q06410 1-417, looked up)
chain: B1 chain 1
notes: Atg17, S. cerevisiae BY4741, open reading frame from genomic DNA; expressed from pST39 with a myc-tag at the C-terminus of Atg17; also called recombinant myc-tagged Atg17; source: E. coli Rosetta, purified; not shown: myc, C-terminal, kept
B3: Atg17^1–354-Atg31–Atg29 (Atg17^monoTC) (complex, S. cerevisiae)
chain 1: MNEADVTKFVNNARKTLTDAQLLCSSANLRIVDIKKKLSSWQLSISKLNFLIVGLRQQGKFLYTILKEGIGTKLIQKQWNQAVLVVLVDEMKYWQYEITSKVQRLDGIVNELSISEKDDTDPSKLGDYISRDNVNLLNDKLKEVPVIERQIENIKLQYENMVRKVNKELIDTKLTDVTQKFQSKFGIDNLMETNVAEQFSRELTDLEKDLAEIMNSLTQHFDKTLLLQDKKIDNDEREELFKVVQGDDKELYNIFKTLHEVIDDVDKTILNLGQFLQAKIKEKTELHSEVSEIINDFNRNLEYLLIFKDISNLIDSFKNSCTQDIQTTKELCEFYDNFEESYGNLVLEAKRRKD
chain 2: B1 chain 2
chain 3: B1 chain 3
notes: Atg31, S. cerevisiae BY4741; Atg29, S. cerevisiae BY4741; source: E. coli Rosetta, co-expressed from pST39, purified (Ni-NTA, SEC); not shown: His6, N-terminal, cleaved; copies: + +
B4: Atg9^core (Atg9^281–779), reconstituted in proteoliposomes (domain or fragment, S. cerevisiae, UniProt Q12142 281-779, looked up)
chain: T1 sequence
notes: Atg9, S. cerevisiae BY4741, conserved core region, residues 281–779; modified pET28a(+) vector; about 50% of the protein in the proteoliposomes has its cytoplasmic domains outside; liposomes of cholesterol, POPE, POPC, POPS, without PI; also called Atg9–PLs; Atg9-PL; source: E. coli Rosetta, solubilised in LDAO, purified (Ni-NTA, SEC), reconstituted in liposomes; not shown: His tag, C-terminal, …
B5: thioredoxin-tagged Atg17^354–417 (domain or fragment, S. cerevisiae, UniProt Q06410 354-417, looked up)
chain: DVANRMKTILKDCEKQLQNLDAQDQEERQNFIAENGTYLPETIWPGKIDDFSSLYTLNYNVKNP
notes: also called dimerization domain; source: E. coli Rosetta, purified
B6: thioredoxin-tagged Atg17^235–417 (domain or fragment, S. cerevisiae, UniProt Q06410 235-417, looked up)
chain: DEREELFKVVQGDDKELYNIFKTLHEVIDDVDKTILNLGQFLQAKIKEKTELHSEVSEIINDFNRNLEYLLIFKDISNLIDSFKNSCTQDIQTTKELCEFYDNFEESYGNLVLEAKRRKDVANRMKTILKDCEKQLQNLDAQDQEERQNFIAENGTYLPETIWPGKIDDFSSLYTLNYNVKNP
notes: source: E. coli Rosetta, purified
B7: thioredoxin-tagged Atg17^235–354 (domain or fragment, S. cerevisiae, UniProt Q06410 235-354, looked up)
chain: DEREELFKVVQGDDKELYNIFKTLHEVIDDVDKTILNLGQFLQAKIKEKTELHSEVSEIINDFNRNLEYLLIFKDISNLIDSFKNSCTQDIQTTKELCEFYDNFEESYGNLVLEAKRRKD
notes: as for B6

Assays:
[1] = target: pentameric Atg1–kinase complex (Atg1^PC) (S. cerevisiae) (UniProt P53104); test: SEC-MALS; Atg1^PC injected at 3.4 mg ml^−1, 100 μl, Superose-6 10/300GL
[2] = target: the molecule itself; test: dynamic light scattering; Stokes radii (RH) of the purified proteins and complexes in solution
[3] = target: T2, Atg1–Atg13 subcomplex (S. cerevisiae, UniProt P53104 1-897; Q06628 1-738, phosphothreonine at 226 (T226)); test: SEC; complexes assembled from purified subunits or subcomplexes, 30 min at room temperature, then gel filtration on Superose 6; settings: both partners purified
T2 construct: Atg1, S. cerevisiae BY4741; Atg13, S. cerevisiae BY4741; source: assembled from purified subunits (Atg1 from High Five cells, Atg13 from E. coli Rosetta), gel filtration on Superose 6

[4] = target: T1, Atg9^core (Atg9^281–779), reconstituted in proteoliposomes (S. cerevisiae)
[5] = target: B4; test: co-floatation with proteoliposomes; Atg9 variant held in proteoliposomes (synthetic lipids without PI), partner in solution at 1:1, Nycodenz step gradient, 650,000g 2 h at 4 °C, 25 mM HEPES pH 7.0, 100 mM NaCl; top fraction read by SDS–PAGE or α-myc immunoblot; settings: both partners purified
[6] = target: T3, Atg1^PC with myc-tagged Atg17 (S. cerevisiae, UniProt P53104 1-897; Q06628 1-738; Q06410 1-417; Q12421 1-196; Q12092 1-213, phosphothreonine at 226 (T226)); test: as above; settings: both partners purified
T3 construct: Atg1, S. cerevisiae BY4741; Atg13, S. cerevisiae BY4741; Atg17, S. cerevisiae BY4741; Atg31, S. cerevisiae BY4741; Atg29, S. cerevisiae BY4741; the form detected by α-myc immunoblot in the co-floatation experiments; also called Atg17^TC combined with Atg1–Atg13; source: purified Atg1–Atg13 combined with purified Atg17^TC; not shown: myc, C-terminal, kept; copies: 2 + 2 + 2 + 2 + 2

[7] = target: T4, Atg17^TC (myc-tagged Atg17) with Atg13 alone (S. cerevisiae, UniProt Q06628 1-738; Q06410 1-417; Q12421 1-196; Q12092 1-213); test: as above; settings: both partners purified
T4 construct: Atg13, S. cerevisiae BY4741; Atg17, S. cerevisiae BY4741; Atg31, S. cerevisiae BY4741; Atg29, S. cerevisiae BY4741; it was not isolated as such; also called Atg17^TC in the presence of Atg13; source: purified Atg13 combined with purified Atg17^TC; not shown: myc, C-terminal, kept; copies: + 2 + 2 + 2

[8] = target: the molecule itself; test: not stated; recombinantly expressed Atg17 fragment; how the dimer was shown is not told

T2 sequence (P53104 whole entry, chain 1 of 2): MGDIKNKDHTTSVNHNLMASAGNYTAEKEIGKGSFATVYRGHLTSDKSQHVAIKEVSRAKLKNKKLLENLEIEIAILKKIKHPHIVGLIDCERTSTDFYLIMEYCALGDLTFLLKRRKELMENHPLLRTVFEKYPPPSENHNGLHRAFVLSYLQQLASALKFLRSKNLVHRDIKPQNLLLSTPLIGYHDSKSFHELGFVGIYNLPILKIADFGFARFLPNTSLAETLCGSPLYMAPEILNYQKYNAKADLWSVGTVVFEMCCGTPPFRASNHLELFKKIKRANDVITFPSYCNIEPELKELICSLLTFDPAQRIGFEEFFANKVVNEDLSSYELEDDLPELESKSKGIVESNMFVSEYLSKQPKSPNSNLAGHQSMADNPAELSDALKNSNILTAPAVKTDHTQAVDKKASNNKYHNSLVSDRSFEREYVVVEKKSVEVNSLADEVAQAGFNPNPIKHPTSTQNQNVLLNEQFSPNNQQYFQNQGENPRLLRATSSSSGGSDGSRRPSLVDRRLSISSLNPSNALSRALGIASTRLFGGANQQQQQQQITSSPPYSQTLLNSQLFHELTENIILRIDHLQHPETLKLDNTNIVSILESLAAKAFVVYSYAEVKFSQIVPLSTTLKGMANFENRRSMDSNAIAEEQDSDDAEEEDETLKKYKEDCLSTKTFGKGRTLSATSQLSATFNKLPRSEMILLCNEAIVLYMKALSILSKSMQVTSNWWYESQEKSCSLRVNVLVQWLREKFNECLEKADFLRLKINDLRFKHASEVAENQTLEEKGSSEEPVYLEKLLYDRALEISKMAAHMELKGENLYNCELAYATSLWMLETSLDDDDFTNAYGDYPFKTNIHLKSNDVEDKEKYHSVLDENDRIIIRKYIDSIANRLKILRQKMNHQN
T2 sequence (Q06628 whole entry, chain 2 of 2): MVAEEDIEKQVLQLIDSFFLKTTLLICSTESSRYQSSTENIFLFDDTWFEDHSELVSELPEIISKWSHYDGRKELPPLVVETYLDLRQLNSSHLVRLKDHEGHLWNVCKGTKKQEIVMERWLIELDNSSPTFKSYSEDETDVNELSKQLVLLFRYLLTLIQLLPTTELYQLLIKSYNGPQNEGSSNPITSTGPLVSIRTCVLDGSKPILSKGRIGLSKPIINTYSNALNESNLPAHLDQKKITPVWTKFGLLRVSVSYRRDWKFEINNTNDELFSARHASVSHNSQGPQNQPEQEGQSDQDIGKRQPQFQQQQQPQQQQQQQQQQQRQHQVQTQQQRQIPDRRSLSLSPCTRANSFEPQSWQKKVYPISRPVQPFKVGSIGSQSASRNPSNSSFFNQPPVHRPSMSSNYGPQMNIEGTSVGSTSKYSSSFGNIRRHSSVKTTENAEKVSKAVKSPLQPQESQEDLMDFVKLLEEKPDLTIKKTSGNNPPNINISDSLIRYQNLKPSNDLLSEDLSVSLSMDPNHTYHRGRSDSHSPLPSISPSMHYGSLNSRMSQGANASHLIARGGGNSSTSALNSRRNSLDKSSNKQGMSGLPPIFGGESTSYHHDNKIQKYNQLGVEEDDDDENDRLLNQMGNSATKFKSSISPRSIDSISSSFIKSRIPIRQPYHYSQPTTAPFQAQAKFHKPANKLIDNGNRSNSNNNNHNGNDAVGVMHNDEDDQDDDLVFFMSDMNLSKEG
T3 sequence (P53104 whole entry, chain 1 of 2): as the sequence (P53104 whole entry, chain 1 of 2) above
T3 sequence (Q06628 whole entry, chain 2 of 2): as the sequence (Q06628 whole entry, chain 2 of 2) above
T4 sequence (Q06628 whole entry, one chain of several): as the sequence (Q06628 whole entry, chain 2 of 2) above

- stoichiometry N [1]: 2
Molecule: pentameric Atg1–kinase complex (Atg1^PC), P53104 1-897; Q06628 1-738; Q06410 1-417; Q12421 1-196; Q12092 1-213

Molecule: B1
- stoichiometry N [2]: 2
- binding result [3]: binds
- RH of Atg9–PLs prepared in the presence of Atg17^TC, by DLS (vesicle tethering) [4]: 72 nm

Molecule: B2
- binding result [5]: binds

Molecule: B3
- binding result [3]: binds

Molecule: B4
- binding result [6]: binds
- binding result [7]: binds

Molecule: B5
- binding result [5]: binds

Molecule: B6
- binding result [5]: binds
- stoichiometry N [8]: 2

Molecule: B7
- binding result [5]: binds
